Assay results published in the RNAGym collection of RNA variant scans (doi:10.1073/pnas.2313332121).
Fewer inactive variants are shown than the library holds.

B1: TPR 5TU (parent)
chain: GGAUCUUCUCGAUCUAACAAAAAAGACAAAUCUGCCACAAAGCUUGAGAGCAUCUUCGGAUGCAGAGGCGGCAGCCUUCGGUGGCGCGAUAGCGCCAACGUUCUCAACUAUGACACGCAAAACGCGUGCUCCGUUGAAUGGAGUUUAUCAUG

Variants of: B1
Experiment: polymerase ribozyme fitness, log enrichment relative to wild type (log ratio); higher = more active; in vitro selection for triplet polymerase activity
Procedure, shortened: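 Each subunit of a heterodimeric triplet polymerase ribozyme was represented by a PCR-built, transcribed mutant library that underwent triplicate single-round in vitro selection with frozen incubation at −7 °C. Extended constructs were recovered by gel excision, streptavidin-bead capture and RT-PCR, and Illumina sequencing of input and output libraries kept genotypes with ≥10 input reads and ≥1 read per output. Fitness is the logarithm of genotype enrichment relative to wild-type enrichment, from inverse-variance-weighted replicate averages, with a logarithm base of 2.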

Going from C5U U45A A47C G62U C69U to U6A G83C A89U G136U A137G, the “polymerase ribozyme fitness (log ratio)” value rises from ≤ -4.2 to -3.78.

Going from U6G A26C G83U A89U to U6C G48C G65A U78A G80A G88C A106G U127C G152U, the “polymerase ribozyme fitness (log ratio)” value falls from -3.85 to ≤ -4.2.

U6C C14G A40C A52U A91U and U6C C38U C75G U82A A107G A120G G133A U134A cannot be ordered by “polymerase ribozyme fitness (log ratio)” value: ≤ -4.2 for the first, ≤ -4.2 for the second.

Compared with C5U C85G, C5U C8G A12G A19U U55G C87A C96G A147C is lower in “polymerase ribozyme fitness (log ratio)” value: -1.7 for the first, ≤ -4.2 for the second.

Compared with U6A A12G A17C G25C U55G A89G, U6A A41C U45A A49G G59U G86A is lower in “polymerase ribozyme fitness (log ratio)” value: -3.61 for the first, ≤ -4.2 for the second.

U6C A29U A41C G42U G59C C85U G100U A107G G124A and U6A A21U U31A G74A cannot be ordered by “polymerase ribozyme fitness (log ratio)” value: ≤ -4.2 for the first, ≤ -4.2 for the second.

Compared with C5U U56A C57A C85G, C5U U6G C14U A20C A26U A37C A66U A120G is lower in “polymerase ribozyme fitness (log ratio)” value: -0.724 for the first, ≤ -4.2 for the second.

U6C C32U G84A G88C U111C A150U and C5U U13A A17C C27G A28U A52C C85U A113C U127A U144G cannot be ordered by “polymerase ribozyme fitness (log ratio)” value: ≤ -4.2 for the first, ≤ -4.2 for the second.

U6C A24G U31A A52C C87U U90G G92U C93A and U6A U44A C57G G70A G80A C85U G126U C131G cannot be ordered by “polymerase ribozyme fitness (log ratio)” value: ≤ -4.2 for the first, ≤ -4.2 for the second.

First: U6A A106G G117C A147U
Second: U6G A40C
The “polymerase ribozyme fitness (log ratio)” value of the first is lower: -0.278 for the first, 1.13 for the second.

U6G A23U C51A U55G A115U and C5G U55A G70C C85A C96U U151G cannot be ordered by “polymerase ribozyme fitness (log ratio)” value: ≤ -4.2 for the first, ≤ -4.2 for the second.

U6C C8U A17U A39G G83A U101A and U6A A20G U56A G88U U102A C103G C132A U146G cannot be ordered by “polymerase ribozyme fitness (log ratio)” value: ≤ -4.2 for the first, ≤ -4.2 for the second.

First: C5U A142U
Second: U6C C18U G59C A66U A73C U101G U139C U144A
The “polymerase ribozyme fitness (log ratio)” value of the first is higher: -0.885 for the first, ≤ -4.2 for the second.

First: C5U G141C
Second: C5U U9C A29C C93U C103U G126U
The “polymerase ribozyme fitness (log ratio)” value of the first is higher: -0.459 for the first, ≤ -4.2 for the second.

C5U A23U A24C G46A C96U A137U and C5U U33A C38U C57G C93U A98U cannot be ordered by “polymerase ribozyme fitness (log ratio)” value: ≤ -4.2 for the first, ≤ -4.2 for the second.

Compared with U6G A73U G81C A98C C99U U144C, C5G U53A U56A G68C G94A C118U U148A A150C is lower in “polymerase ribozyme fitness (log ratio)” value: -3.62 for the first, ≤ -4.2 for the second.

C5U U55G C79G C87A A97U A106C and U6A A20U C27U G46A C87A cannot be ordered by “polymerase ribozyme fitness (log ratio)” value: ≤ -4.2 for the first, ≤ -4.2 for the second.

U6A G50C C57A G83U C87A G94A and U6G A60C A73C C87A C118U cannot be ordered by “polymerase ribozyme fitness (log ratio)” value: ≤ -4.2 for the first, ≤ -4.2 for the second.

First: U6C G42U U77G C87U A122U
Second: C5U A20C G59A A60G C69A A98G
The “polymerase ribozyme fitness (log ratio)” value of the first is lower: ≤ -4.2 for the first, -2.12 for the second.

Compared with U6A A16C C27U U31G A52C C54G C118U, C5U C38U C54U G94U A115U A119G G136U A147U is higher in “polymerase ribozyme fitness (log ratio)” value: ≤ -4.2 for the first, -3.8 for the second.

First: U6A U13G C96A C105U
Second: U6A A19C A24U A28G G141C G152A
The “polymerase ribozyme fitness (log ratio)” value of the first is higher: -2.15 for the first, -3.96 for the second.

U6C U53A G59A G83A U90G C118U C131U A137G A138C and U6A C51A G58C C63G C93G U104G U145A U148C cannot be ordered by “polymerase ribozyme fitness (log ratio)” value: ≤ -4.2 for the first, ≤ -4.2 for the second.

Going from U6C A22U A26U G84A U144A to U6G A47U U61G C69A, the “polymerase ribozyme fitness (log ratio)” value falls from -4.15 to ≤ -4.2.

U6G A28U A41G G88C G143A U144C U146G and U6A U55G U139A cannot be ordered by “polymerase ribozyme fitness (log ratio)” value: ≤ -4.2 for the first, ≤ -4.2 for the second.

Going from C5G G136A to C5U G46A A52G C85U A107U C118A A137U, the “polymerase ribozyme fitness (log ratio)” value falls from 0.0107 to ≤ -4.2.

Compared with U6G A26U C93U, C5U A16U C87A A106C is lower in “polymerase ribozyme fitness (log ratio)” value: -2.39 for the first, ≤ -4.2 for the second.

First: U6C A16U A17G C85U A89G
Second: C5U A41U G83A
The “polymerase ribozyme fitness (log ratio)” value of the first is lower: ≤ -4.2 for the first, -1.02 for the second.

U6C A24U A28C C35U A37U U90G C93A C131U U145C and U6A A19G C38G U61A G94C C103G cannot be ordered by “polymerase ribozyme fitness (log ratio)” value: ≤ -4.2 for the first, ≤ -4.2 for the second.

Going from U6A G86U to U6G A20C A22G A26C C57A C87A A120G, the “polymerase ribozyme fitness (log ratio)” value falls from -1.41 to ≤ -4.2.

U6C U7G G59U G68C U82C G136U and C5U C10G C35U C75G U102G A107U C118A cannot be ordered by “polymerase ribozyme fitness (log ratio)” value: ≤ -4.2 for the first, ≤ -4.2 for the second.

C5U A66G C87U and C5U U7G A29C A49G G50C C76A C87U C131A G133A U145G cannot be ordered by “polymerase ribozyme fitness (log ratio)” value: ≤ -4.2 for the first, ≤ -4.2 for the second.

First: U6G A26U G84C
Second: U6A G62A C76A A91U A121U C123A A138C G141U
The “polymerase ribozyme fitness (log ratio)” value of the first is higher: -2.97 for the first, ≤ -4.2 for the second.

C5U A23G C32A C57G G59A C87G C95A U134C and U6C U44A U56A U61C A91G U130A C132U A150C U151G cannot be ordered by “polymerase ribozyme fitness (log ratio)” value: ≤ -4.2 for the first, ≤ -4.2 for the second.

Going from U6A C14U G65U A91G U148A to U6A G58C G94A, the “polymerase ribozyme fitness (log ratio)” value rises from ≤ -4.2 to -0.942.

First: U6G A17U A60G C93A A98U
Second: U6C A19U A60C C87A A91U U134G
The “polymerase ribozyme fitness (log ratio)” value of the first is higher: -1.75 for the first, ≤ -4.2 for the second.

C5U A47C G59A C87U C93U and U6C C57U G83U G84U A121U are within 0.2 log units of each other in “polymerase ribozyme fitness (log ratio)” value: -3.16 for the first, -3.18 for the second.

Compared with U6A C18A A21U U56G G68A A91U G128C U139A G143A, C5U C38G C57U G84U A106C is higher in “polymerase ribozyme fitness (log ratio)” value: ≤ -4.2 for the first, -3 for the second.

Compared with U6C U56G A64C G143U, C5U G46A U61G is higher in “polymerase ribozyme fitness (log ratio)” value: ≤ -4.2 for the first, -4.13 for the second.

Going from U6G A19G C38G C96A A106U to C5U A16C G81A U82A G126C, the “polymerase ribozyme fitness (log ratio)” value rises from -3.84 to -0.899.

Going from U6C G117C to U6A U13A U61A C76A A91G, the “polymerase ribozyme fitness (log ratio)” value falls from -0.247 to ≤ -4.2.

Compared with C5U A47G C79A A138G, U6G A41G G48U C54U A122U is higher in “polymerase ribozyme fitness (log ratio)” value: ≤ -4.2 for the first, -0.949 for the second.

Going from C5U C105U A138U to C5U A121G, the “polymerase ribozyme fitness (log ratio)” value rises from ≤ -4.2 to 0.614.
